Reference: patent publication US20260053961A1, “HETERODIMER AND RADIOACTIVE MEDICAL USE THEREOF” (HEXIN (SUZHOU) PHARMACEUTICAL TECHNOLOGY CO., LTD., priority 2022, published 2026)

How the values were obtained:
BxPC3 tumor-bearing mice = assay: PET/CT imaging of ^68Ga complexes in small animals; assay type: in vivo, NCr nude mice
Method: (§1) BxPC3 human pancreatic cancer cells are suspended in a mixture of 200 μL phosphate buffer and matrix gel (v/v, 1/1), and 2×10^6 cells were implanted subcutaneously into left shoulders of normal NCr nude mice (18-25 g, 4-6 weeks old). After an average of 1.5 weeks, a tumor diameter reached about 10 mm, which was sufficient for biodistribution and single-photon emission computed tomography-computed tomography (SPECT/CT) imaging studies.
(§2) PET-CT and image analysis were performed using a small-animal NovelMedcal PET-CT scanner (Beijing Yongxin). Maximum tangential and radial half-widths of the scanner in a center of field of view were 1.5 mm, and at an edge of the field of view were 1.8 mm.
(§3) About 100 μCi of each of the following complexes: ^68Ga-L00, ^68Ga-L11, ^68Ga-L12, ^68Ga-L13, and ^68Ga-L21, was injected into BxPC3 tumor-bearing mice via tail vein under isoflurane anesthesia, and each of the complexes was injected into four mice. Static PET-CT images were obtained for 15 min 0.5, 1, 2, 3, 4, 5 and 6 hours after intravenous injection. Distribution patterns of the five complexes at each time point were compared.
(§4) PET and CT images were acquired using NMSoft workstation software (Beijing Yongxin), and data were given as a percentage of injected dose per gram of tissue or organ (ID/g), and were determined through decay correction for each sample (standardized to a known weight of the injected dose. Normalization was performed during statistical analysis, and standardized uptake values (SUVs) were calculated according to the following formula: […]

[1] = PET/CT imaging of ^68Ga complexes in small animals; assay type: in vivo, NCr nude mice; details: NCr nude, mouse, in vivo, iv, 100 uCi, total radioactivity
Method: as §1, §2, §3, §4

[2] = Stability study: in vitro incubation at constant temperature (37° C.) in murine plasma, LC-MS/MS; assay type: in vitro ADME
Method: (§5) The experiment was carried out by using an in vitro incubation method at a constant temperature (37° C.) to study the stability of the compound ([…]) from Example L11 in murine plasma or PBS. The compound obtained from Example L11 was dissolved in 1 mL of mouse serum, respectively, and incubated in vitro at a constant temperature for 0 h, 0.5 h, 1 h, 4 h, 24 h, and 48 h, and a percentage of drug remaining was then measured and determined. PBS was used as a negative control group. Peak areas of the drug and an internal standard were measured using an LC-MS/MS method, and ratios of the peaks were used instead of the drug concentration for calculation.

[3] = Stability study: in vitro incubation at constant temperature (37° C.) in PBS, LC-MS/MS; assay type: physicochemical
Method: as §5

Structure (SMILES): C[C@@H](O)[C@@H]1NC(=O)[C@H](CCCNC(=N)N)NC(=O)CNC(=O)[C@H](CC(N)=O)NC(=O)[C@H](Cc2ccc(O)cc2)NC(=O)[C@H](CCCCNC(=O)CCOCCOCCOCCOCCNC(=O)OCC2C3CCc4nnn(CCC(C(=O)N[C@@H](CCCCNC(=O)CCC(=O)N[C@@H](CCCCN)C(=O)O)C(=O)NCCOCCOCCOCCOCCC(=O)NCCCC[C@@H]5NC(=O)[C@@H](Cc6ccccc6)NC(=O)[C@H](CC(=O)O)NC(=O)CNC(=O)[C@H](CCCNC(=N)N)NC5=O)N5CCN(CC(=O)O)CCN(CC(=O)O)CCN(CC(=O)O)CC5)c4CCC32)NC1=O (stereo partly shown) [^68Ga-L00, metal not drawn]
- clearance of the drug (BxPC3 tumor-bearing mice; mouse, in vivo): rapidly metabolized through the kidneys
- signals in the tumor tissue over time (BxPC3 tumor-bearing mice; mouse, in vivo, iv): gradually weakened
- tissue to tissue ratio at 2 h [1]: ~0.18

Structure (SMILES): C[C@@H](O)[C@@H]1NC(=O)[C@H](CCCNC(=N)N)NC(=O)CNC(=O)[C@H](CC(N)=O)NC(=O)[C@H](Cc2ccc(O)cc2)NC(=O)[C@H](CCCCNC(=O)CCOCCOCCOCCOCCNC(=O)OCC2C3CCc4nnn(CCC(C(=O)N[C@@H](CCCCNC(=O)CCC(=O)N[C@@H](CCCCNC(=O)CCCc5ccc(C(F)(F)F)cc5)C(=O)O)C(=O)NCCOCCOCCOCCOCCC(=O)NCCCC[C@@H]5NC(=O)[C@@H](Cc6ccccc6)NC(=O)[C@H](CC(=O)O)NC(=O)CNC(=O)[C@H](CCCNC(=N)N)NC5=O)N5CCN(CC(=O)O)CCN(CC(=O)O)CCN(CC(=O)O)CC5)c4CCC32)NC1=O (single isomer, unassigned) [Example L11, RGD-PEG4-Lys (—R—R1)-DOTA-click-PEG4-NGR]
- remaining at 0.5 h, 1 g/mL ([2]; mouse, mouse plasma, murine plasma, 37° C., 0.5 h, read-out: Percentage of drug remaining): 98.5%
- remaining at 1 h, 1 g/mL ([2]; mouse, mouse plasma, murine plasma, 37° C., 1 h, read-out: Percentage of drug remaining): 98.4%
- remaining at 4 h, 1 g/mL ([2]; mouse, mouse plasma, murine plasma, 37° C., 4 h, read-out: Percentage of drug remaining): 98%
- remaining at 24 h, 1 g/mL ([2]; mouse, mouse plasma, murine plasma, 37° C., 24 h, read-out: Percentage of drug remaining): 93.4%
- remaining at 48 h, 1 g/mL ([2]; mouse, mouse plasma, murine plasma, 37° C., 48 h, read-out: Percentage of drug remaining): 86.5%
- Percentage of drug remaining (summary statement) ([2]; murine plasma or PBS, in vitro incubation at constant temperature, over the study): above 95%
- Percentage of drug remaining ([2]; murine plasma, 37° C., 0 h): 100%
- Percentage of drug remaining ([3]; 0 h): 100%
- remaining at 0.5 h, 1 g/mL ([3]; 0.5 h, read-out: Percentage of drug remaining): 99.3%
- remaining at 1 h, 1 g/mL ([3]; 1 h, read-out: Percentage of drug remaining): 98.7%
- remaining at 4 h, 1 g/mL ([3]; 4 h, read-out: Percentage of drug remaining): 98.6%
- remaining at 24 h, 1 g/mL ([3]; 24 h, read-out: Percentage of drug remaining): 98.3%
- remaining at 48 h, 1 g/mL ([3]; 48 h, read-out: Percentage of drug remaining): 97.9%

Structure (SMILES): C[C@@H](O)[C@@H]1NC(=O)[C@H](CCCNC(=N)N)NC(=O)CNC(=O)[C@H](CC(N)=O)NC(=O)[C@H](Cc2ccc(O)cc2)NC(=O)[C@H](CCCCNC(=O)CCOCCOCCOCCOCCNC(=O)OCC2C3CCc4nnn(CCC(C(=O)N[C@@H](CCCCNC(=O)CCC(=O)N[C@@H](CCCCNC(=O)CCCc5ccc(C(F)(F)F)cc5)C(=O)O)C(=O)NCCOCCOCCOCCOCCC(=O)NCCCC[C@@H]5NC(=O)[C@@H](Cc6ccccc6)NC(=O)[C@H](CC(=O)O)NC(=O)CNC(=O)[C@H](CCCNC(=N)N)NC5=O)N5CCN(CC(=O)O)CCN(CC(=O)O)CCN(CC(=O)O)CC5)c4CCC32)NC1=O (single isomer, unassigned) [^68Ga-L11, metal not drawn]
- tumor-to-kidney ratio, rank among the five complexes (BxPC3 tumor-bearing mice; MIP images and ROI regions): highest among the five conjugates
- tumor-to-muscle ratio, rank among the five complexes (BxPC3 tumor-bearing mice; MIP images and ROI regions): highest among the five conjugates
- tissue to tissue ratio at 6 h ([1]; about 6 hours after the injection, PET/CT, read-out: tumor-to-kidney ratio): ~1.4
